{"source": "patent US20230303983A1", "key": {"[1]": {"target": "PHP.eB capsid", "assay": "AAVX affinity HPLC at room temperature (24 C), qPCR of flow-through"}, "[2]": {"target": "AAV9 capsid", "assay": "AAVX affinity HPLC at room temperature (24 C), qPCR of flow-through"}, "[3]": {"target": "AAV4 capsid", "assay": "static binding assay on AAVX resin, qPCR of vector genomes"}, "[4]": {"target": "AAV7 capsid", "assay": "static binding assay on AAVX resin, qPCR of vector genomes"}, "[5]": {"target": "AAV6.2 capsid", "assay": "static binding assay on AAVX resin, qPCR of vector genomes"}, "[6]": {"target": "rh10 capsid", "assay": "static binding assay on AAVX resin, qPCR of vector genomes"}, "[7]": {"target": "AAV2_HSPG capsid", "assay": "static binding assay on AAVX resin, qPCR of vector genomes"}, "[8]": {"target": "AAV8 capsid", "assay": "static binding assay on AAVX resin, qPCR of vector genomes"}, "[9]": {"target": "AAV7m8 capsid", "assay": "static binding assay on AAVX resin, qPCR of vector genomes"}, "[10]": {"target": "rh32.33 capsid", "assay": "static binding assay on AAVX resin, qPCR of vector genomes"}, "[11]": {"target": "AAV9 capsid", "assay": "static binding assay on AAVX resin, qPCR of vector genomes"}, "[12]": {"target": "AAV2 capsid (AAV particles of serotype AAV2) (UniProt P03135)", "sequence (P03135 whole entry)": "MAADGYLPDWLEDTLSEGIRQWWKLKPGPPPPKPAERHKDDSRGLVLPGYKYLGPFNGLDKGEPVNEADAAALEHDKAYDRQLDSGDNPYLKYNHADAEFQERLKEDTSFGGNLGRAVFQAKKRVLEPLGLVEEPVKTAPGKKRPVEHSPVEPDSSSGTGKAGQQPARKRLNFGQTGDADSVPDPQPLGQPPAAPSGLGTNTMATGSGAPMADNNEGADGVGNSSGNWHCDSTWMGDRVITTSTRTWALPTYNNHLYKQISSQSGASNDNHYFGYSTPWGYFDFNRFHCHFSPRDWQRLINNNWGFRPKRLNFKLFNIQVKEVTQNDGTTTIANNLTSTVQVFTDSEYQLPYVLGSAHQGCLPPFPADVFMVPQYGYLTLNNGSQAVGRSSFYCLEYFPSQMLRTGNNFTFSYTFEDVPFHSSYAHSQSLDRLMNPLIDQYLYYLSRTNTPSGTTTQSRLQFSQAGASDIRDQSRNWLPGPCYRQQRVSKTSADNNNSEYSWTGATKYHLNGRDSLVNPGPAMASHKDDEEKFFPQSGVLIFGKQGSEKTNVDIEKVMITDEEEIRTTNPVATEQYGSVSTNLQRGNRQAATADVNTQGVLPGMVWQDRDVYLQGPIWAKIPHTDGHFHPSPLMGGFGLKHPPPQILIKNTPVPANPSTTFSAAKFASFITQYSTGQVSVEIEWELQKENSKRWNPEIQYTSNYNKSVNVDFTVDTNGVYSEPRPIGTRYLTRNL", "assay": "static binding assay on AAVX resin, qPCR of vector genomes"}, "[13]": {"target": "AAV5 capsid", "assay": "static binding assay on AAVX resin, qPCR of vector genomes"}, "[14]": {"target": "Anc80 capsid", "assay": "static binding assay on AAVX resin, qPCR of vector genomes"}, "[15]": {"target": "PHP.B capsid", "assay": "static binding assay on AAVX resin, qPCR of vector genomes"}, "[16]": {"target": "AAV1 capsid", "assay": "AAVX affinity HPLC, five consecutive small-scale preps on the same resin, qPCR of fractions"}}, "data": [{"substance": "POROS CaptureSelect AAVX resin ligand (camelid heavy-chain-only single-domain antibody fragment linked to poly[styrene divinylbenzene] beads) (VHH)", "values": [{"measurement": "fraction of input AAV in the flow-through", "setting": "[1]", "result": "< 5", "unit": "%"}, {"measurement": "fraction of input AAV in the flow-through", "setting": "[2]", "result": "< 5", "unit": "%"}, {"measurement": "recovery (percent vector genomes of input)", "setting": "[3]", "result": "> 95", "unit": "%"}, {"measurement": "recovery (percent vector genomes of input)", "setting": "[4]", "result": "> 95", "unit": "%"}, {"measurement": "recovery (percent vector genomes of input)", "setting": "[5]", "result": "> 95", "unit": "%"}, {"measurement": "recovery (percent vector genomes of input)", "setting": "[6]", "result": "> 95", "unit": "%"}, {"measurement": "recovery (percent vector genomes of input)", "setting": "[7]", "result": "> 95", "unit": "%"}, {"measurement": "recovery (percent vector genomes of input)", "setting": "[8]", "result": "> 95", "unit": "%"}, {"measurement": "recovery (percent vector genomes of input)", "setting": "[9]", "result": "> 95", "unit": "%"}, {"measurement": "recovery (percent vector genomes of input)", "setting": "[10]", "result": "> 95", "unit": "%"}, {"measurement": "recovery (percent vector genomes of input)", "setting": "[11]", "result": "> 95", "unit": "%"}, {"measurement": "recovery (percent vector genomes of input)", "setting": "[12]", "result": "> 95", "unit": "%"}, {"measurement": "recovery (percent vector genomes of input)", "setting": "[13]", "result": "> 95", "unit": "%"}, {"measurement": "recovery (percent vector genomes of input)", "setting": "[14]", "result": 80, "unit": "%"}, {"measurement": "recovery (percent vector genomes of input)", "setting": "[15]", "result": "> 95", "unit": "%"}, {"measurement": "percent of input virus in flow-through", "setting": "[16]", "result": "< 2", "unit": "%"}]}]}
